# Test results: paper PMC2063832
# Tested on: La protein (Homo sapiens)
# Assay: immunoprecipitation
substance,measurement,value
EBER1 wild type,binding signal (reference (wild type)),1
